Data from patent publication US20160046957A1.

Target: human coagulation Factor X (human) (UniProt P00742)
Experiment: cell-based or functional assay

UniProt P00742, sequence (P00742 41-488): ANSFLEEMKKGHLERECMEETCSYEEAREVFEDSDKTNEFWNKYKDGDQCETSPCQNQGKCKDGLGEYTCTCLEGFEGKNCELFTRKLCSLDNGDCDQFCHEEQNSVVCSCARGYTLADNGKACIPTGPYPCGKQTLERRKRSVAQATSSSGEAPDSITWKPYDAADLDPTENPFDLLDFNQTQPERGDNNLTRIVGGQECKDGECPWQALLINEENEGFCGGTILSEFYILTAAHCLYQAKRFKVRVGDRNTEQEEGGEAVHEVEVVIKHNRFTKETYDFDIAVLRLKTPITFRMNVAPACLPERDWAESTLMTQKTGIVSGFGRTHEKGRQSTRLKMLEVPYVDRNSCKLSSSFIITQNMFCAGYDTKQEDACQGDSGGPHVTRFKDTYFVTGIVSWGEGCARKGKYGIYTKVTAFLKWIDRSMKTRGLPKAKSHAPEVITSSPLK

With “human furin (from UniProt P09958 108-794) (enzyme)” the estimated furin concentration in the cell culture medium resulting in equal or higher 90% fully processed FX of total FX (Emax model on Western blot densitometry and furin activity assay) was > 57 U/mL.
